From US20230151068A1

Molecular target: biotinylated His-Avi-TEAD (194-411) (UniProt P28347)
Assay: SSM screen, enrichment after two rounds of sorting

Row | Binder | enrichment score
1 | GSPDEYIERAKECCKKGAIQCCLRYFEESGDPNVMLICLFCP (designed binder) [D16A variant of SEQ ID NO: 1] | -5.23
2 | GSPDEYIERAKECCKKGDAQCCLRYFEESGDPNVMLICLFCP (designed binder) [I17A variant of SEQ ID NO: 1] | -4.36
3 | GSPDEYIERAKECCKKGDIACCLRYFEESGDPNVMLICLFCP (designed binder) [Q18A variant of SEQ ID NO: 1] | -1.53
4 | GSPDEYIERAKECCIKGDIQCCLRYFEESGDPNVMLICLFCP (designed binder) [K13I variant of SEQ ID NO: 1] | -1.54
5 | GSPDEYIERAKECCKIGDIQCCLRYFEESGDPNVMLICLFCP (designed binder) [K14I variant of SEQ ID NO: 1] | -0.99
6 | GSPDEYIERAKECCKKIDIQCCLRYFEESGDPNVMLICLFCP (designed binder) [G15I variant of SEQ ID NO: 1] | -1.96
7 | GSPDEYIERAKECCKKGIIQCCLRYFEESGDPNVMLICLFCP (designed binder) [D16I variant of SEQ ID NO: 1] | -6.42
8 | GSPDEYIERAKECCKKGDIICCLRYFEESGDPNVMLICLFCP (designed binder) [Q18I variant of SEQ ID NO: 1] | -11.4
9 | GSPDEYIERAKECCLKGDIQCCLRYFEESGDPNVMLICLFCP (designed binder) [K13L variant of SEQ ID NO: 1] | -1.37
10 | GSPDEYIERAKECCKLGDIQCCLRYFEESGDPNVMLICLFCP (designed binder) [K14L variant of SEQ ID NO: 1] | -0.89
11 | GSPDEYIERAKECCKKLDIQCCLRYFEESGDPNVMLICLFCP (designed binder) [G15L variant of SEQ ID NO: 1] | -0.59
12 | GSPDEYIERAKECCKKGLIQCCLRYFEESGDPNVMLICLFCP (designed binder) [D16L variant of SEQ ID NO: 1] | -8.99
13 | GSPDEYIERAKECCKKGDLQCCLRYFEESGDPNVMLICLFCP (designed binder) [I17L variant of SEQ ID NO: 1] | 1.28
14 | GSPDEYIERAKECCKKGDILCCLRYFEESGDPNVMLICLFCP (designed binder) [Q18L variant of SEQ ID NO: 1] | -4.91
15 | GSPDEYIERAKECCVKGDIQCCLRYFEESGDPNVMLICLFCP (designed binder) [K13V variant of SEQ ID NO: 1] | -1.65
16 | GSPDEYIERAKECCKVGDIQCCLRYFEESGDPNVMLICLFCP (designed binder) [K14V variant of SEQ ID NO: 1] | 0.08
17 | GSPDEYIERAKECCKKVDIQCCLRYFEESGDPNVMLICLFCP (designed binder) [G15V variant of SEQ ID NO: 1] | 0.99
18 | GSPDEYIERAKECCKKGVIQCCLRYFEESGDPNVMLICLFCP (designed binder) [D16V variant of SEQ ID NO: 1] | -7.81
19 | GSPDEYIERAKECCKKGDVQCCLRYFEESGDPNVMLICLFCP (designed binder) [I17V variant of SEQ ID NO: 1] | 4.17

Row | Binder | enrichment score
20 | GSPDEYIERAKECCKKGDIVCCLRYFEESGDPNVMLICLFCP (designed binder) [Q18V variant of SEQ ID NO: 1] | -0.77
21 | GSPDEYIERAKECCFKGDIQCCLRYFEESGDPNVMLICLFCP (designed binder) [K13F variant of SEQ ID NO: 1] | -1.14
22 | GSPDEYIERAKECCKFGDIQCCLRYFEESGDPNVMLICLFCP (designed binder) [K14F variant of SEQ ID NO: 1] | -0.5
23 | GSPDEYIERAKECCKKFDIQCCLRYFEESGDPNVMLICLFCP (designed binder) [G15F variant of SEQ ID NO: 1] | -1.98
24 | GSPDEYIERAKECCKKGFIQCCLRYFEESGDPNVMLICLFCP (designed binder) [D16F variant of SEQ ID NO: 1] | -1.86
25 | GSPDEYIERAKECCKKGDFQCCLRYFEESGDPNVMLICLFCP (designed binder) [I17F variant of SEQ ID NO: 1] | -3.5
26 | GSPDEYIERAKECCKKGDIFCCLRYFEESGDPNVMLICLFCP (designed binder) [Q18F variant of SEQ ID NO: 1] | -4.21
27 | GSPDEYIERAKECCWKGDIQCCLRYFEESGDPNVMLICLFCP (designed binder) [K13W variant of SEQ ID NO: 1] | -2.99
28 | GSPDEYIERAKECCKWGDIQCCLRYFEESGDPNVMLICLFCP (designed binder) [K14W variant of SEQ ID NO: 1] | -2.64
29 | GSPDEYIERAKECCKKWDIQCCLRYFEESGDPNVMLICLFCP (designed binder) [G15W variant of SEQ ID NO: 1] | -4.75
30 | GSPDEYIERAKECCKKGWIQCCLRYFEESGDPNVMLICLFCP (designed binder) [D16W variant of SEQ ID NO: 1] | -2.3
31 | GSPDEYIERAKECCKKGDWQCCLRYFEESGDPNVMLICLFCP (designed binder) [I17W variant of SEQ ID NO: 1] | -10.4
32 | GSPDEYIERAKECCKKGDIWCCLRYFEESGDPNVMLICLFCP (designed binder) [Q18W variant of SEQ ID NO: 1] | -11.1
33 | GSPDEYIERAKECCYKGDIQCCLRYFEESGDPNVMLICLFCP (designed binder) [K13Y variant of SEQ ID NO: 1] | -1.29
34 | GSPDEYIERAKECCKYGDIQCCLRYFEESGDPNVMLICLFCP (designed binder) [K14Y variant of SEQ ID NO: 1] | -0.68
35 | GSPDEYIERAKECCKKYDIQCCLRYFEESGDPNVMLICLFCP (designed binder) [G15Y variant of SEQ ID NO: 1] | -1.14
36 | GSPDEYIERAKECCKKGYIQCCLRYFEESGDPNVMLICLFCP (designed binder) [D16Y variant of SEQ ID NO: 1] | -3.84
37 | GSPDEYIERAKECCKKGDYQCCLRYFEESGDPNVMLICLFCP (designed binder) [I17Y variant of SEQ ID NO: 1] | -9.48
38 | GSPDEYIERAKECCKKGDIYCCLRYFEESGDPNVMLICLFCP (designed binder) [Q18Y variant of SEQ ID NO: 1] | -8.35

Row | Binder | enrichment score
39 | GSPDEYIERAKECCPKGDIQCCLRYFEESGDPNVMLICLFCP (designed binder) [K13P variant of SEQ ID NO: 1] | -10.4
40 | GSPDEYIERAKECCKPGDIQCCLRYFEESGDPNVMLICLFCP (designed binder) [K14P variant of SEQ ID NO: 1] | -10.6
41 | GSPDEYIERAKECCKKPDIQCCLRYFEESGDPNVMLICLFCP (designed binder) [G15P variant of SEQ ID NO: 1] | -1.25
42 | GSPDEYIERAKECCKKGPIQCCLRYFEESGDPNVMLICLFCP (designed binder) [D16P variant of SEQ ID NO: 1] | -4.62
43 | GSPDEYIERAKECCKKGDPQCCLRYFEESGDPNVMLICLFCP (designed binder) [I17P variant of SEQ ID NO: 1] | -2.41
44 | GSPDEYIERAKECCKKGDIPCCLRYFEESGDPNVMLICLFCP (designed binder) [Q18P variant of SEQ ID NO: 1] | 0.69
45 | GSGDEYIERAKECCKKGDIQCCLRYFEESGDPNVMLICLFCP (designed binder) [P01G variant of SEQ ID NO: 1] | 1.7
46 | GSPGEYIERAKECCKKGDIQCCLRYFEESGDPNVMLICLFCP (designed binder) [D02G variant of SEQ ID NO: 1] | -0.32
47 | GSPDGYIERAKECCKKGDIQCCLRYFEESGDPNVMLICLFCP (designed binder) [E03G variant of SEQ ID NO: 1] | -0.62
48 | GSPDEGIERAKECCKKGDIQCCLRYFEESGDPNVMLICLFCP (designed binder) [Y04G variant of SEQ ID NO: 1] | -2.21
49 | GSPDEYGERAKECCKKGDIQCCLRYFEESGDPNVMLICLFCP (designed binder) [I05G variant of SEQ ID NO: 1] | -3.97
50 | GSPDEYIGRAKECCKKGDIQCCLRYFEESGDPNVMLICLFCP (designed binder) [E06G variant of SEQ ID NO: 1] | -1.15
51 | GSPDEYIEGAKECCKKGDIQCCLRYFEESGDPNVMLICLFCP (designed binder) [R07G variant of SEQ ID NO: 1] | 1.31
52 | GSPDEYIERGKECCKKGDIQCCLRYFEESGDPNVMLICLFCP (designed binder) [A08G variant of SEQ ID NO: 1] | -4.11
53 | GSPDEYIERAGECCKKGDIQCCLRYFEESGDPNVMLICLFCP (designed binder) [K09G variant of SEQ ID NO: 1] | -0.48
54 | GSPDEYIERAKGCCKKGDIQCCLRYFEESGDPNVMLICLFCP (designed binder) [E10G variant of SEQ ID NO: 1] | -0.44
55 | GSDDEYIERAKECCKKGDIQCCLRYFEESGDPNVMLICLFCP (designed binder) [P01D variant of SEQ ID NO: 1] | -0.65
56 | GSPDDYIERAKECCKKGDIQCCLRYFEESGDPNVMLICLFCP (designed binder) [E03D variant of SEQ ID NO: 1] | 0.8
